According to IntAct's records for PubMed 23782464:

B1: Bcl-2 homologous antagonist/killer (Homo sapiens), Q16611 (parent)
chain: MASGQGPGPPRQECGEPALPSASEEQVAQDTEEVFRSYVFYRHQQEQEAEGVAAPADPEMVTLPLQPSSTMGQVGRQLAIIGDDINRRYDSEFQTMLQHLQPTAENAYEYFTKIATSLFESGINWGRVVALLGFGYRLALHVYQHGLTGFLGQVTRFVVDFMLHHCIARWIAQRGGWVAALNLGNGPILNVLVVLGVVLLGQFVVRRFFKS
partner: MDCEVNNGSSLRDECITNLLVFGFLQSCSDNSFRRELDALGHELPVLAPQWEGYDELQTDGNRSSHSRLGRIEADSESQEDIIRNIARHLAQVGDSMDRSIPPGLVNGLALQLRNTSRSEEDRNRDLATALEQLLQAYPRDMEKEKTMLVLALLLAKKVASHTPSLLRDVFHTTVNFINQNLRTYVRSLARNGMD

Variants of: B1
Conditions: with bid_human BID

Variant | effect of a mutation on the interaction
MASGQGPGPPRQECGEPALPSASEEQVAQDTEEVFRSYVFYRHQQEQEAEGVAAPADPEMVTLPLQPSSTMGQVGRQLAIIGDDINRRYDSEFQTMLQHLQPTAENAYEEFTKIATSLFESGINWGRVVALLGFGYRLALHVYQHGLTGFLGQVTRFVVDFMLHHCIARWIAQRGGWVAALNLGNGPILNVLVVLGVVLLGQFVVRRFFKS [Y110E] | increasing interaction
